US20030113743

How the values were obtained:
[1] = system: phK2^v217 (pro form of hK2 with valine at residue 217)
[2] = system: synthetic peptide, residues 210-236 of hK2 (peptide #1 of FIG. 16)
[3] = system: peptide #3 of FIG. 16, amino acid residues -7 to +7 of phK2

synthetic peptide, residues 210-236 of hK2 (peptide #1 of FIG. 16), sequence (chain, as listed by the source): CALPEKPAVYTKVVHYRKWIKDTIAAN

Row | Substance | conversion of pro to mature form (HIC-HPLC) [1] | peptide bond cleavage (RP-HPLC, N-terminal sequencing) [2] | peptide bond cleavage [3] | conversion of pro to mature form (HIC-HPLC, N-terminal sequencing) [1]
1 | hK2^v217 (mature hK2 polypeptide having an alanine to valine substitution at amino acid position 217) | no difference in the ratios of the two hK2 forms was detected even after 6 hours | trypsin-like cleavage at a 2:1 ratio over the chymotrypsin-like cleavage |  | 
2 | wild type mature hK2 (prostate-specific glandular kallikrein protein) | at a rate about 30× slower than trypsin | its activity was exclusive for the trypsin-like site (R-K) | hK2 was able to cleave this peptide releasing the propeptide region | 
3 | trypsin |  |  |  | complete conversion of phK2^v217 to hK2^v217
4 | phK2^v217 (pro form of hK2 with valine at residue 217) |  | showed no amidolytic activity |  | 
5 | prostate-specific antigen protein, hK3 (PSA) |  | PSA cleaved the Y-R bond primarily |  | 
